# Data taken from US20030026800A1.
# B1: mouse BAT antibody (antibody, V domains shown)
# VH: QIQLVQSGPELKKPGETVKISCKASGYTFTNYGMNWVKQAPGKGLKWMGWINTDSGESTYAEEFKGRFAFSLETSANTAYLQINNLNNEDTATYFCVRVGYDALDYWGQGTSVTVSS
# VL: QIVLTQSPAIMSASPGEKVTITCSARSSVSYMHWFQQKPGTSPKLWIYRTSNLASGVPARFSGSGSGTSYCLTISRMEAEDAATYYCQQRSSFPLTFGSGTKLEIK
# Tests used:
# [1] = biological target: antigen of Daudi B lymphoblastoid cells to which the mAbs of the invention bind; assay: FACS double labelling, peripheral blood lymphocytes of colon carcinoma patients
# [2] = biological target: antigen of Daudi B lymphoblastoid cells to which the mAbs of the invention bind; assay: FACS double labelling, peripheral blood lymphocytes of healthy individuals
# [3] = biological target: antigen of Daudi B lymphoblastoid cells to which the mAbs of the invention bind; assay: FACS double labelling, peripheral blood lymphocytes of prostate carcinoma patients
# [4] = biological target: antigen of Daudi B lymphoblastoid cells to which the mAbs of the invention bind; assay: FACS double labelling, peripheral blood lymphocytes of breast carcinoma patients
binder,measurement,setting,value
B1,percent of CD3+ BAT+ cells (of total CD3+ cells),[1],7%
same,percent of CD3+ BAT+ cells (of total CD3+ cells),[2],25%
same,percent of CD3+ BAT+ cells (of total CD3+ cells),[3],50%
same,percent of CD3+ BAT+ cells (of total CD3+ cells),[4],10%
